Laboratory results taken from PMC10042821, “Cryo-EM structure of human eIF5A-DHS complex reveals the molecular basis of hypusination-associated neurodegenerative disorders” (Nature Communications, 2023).

Legend:
Test in all cases: MST; Monolith NT.115; 8.32 nM His-tagged DHS labelled with RED-tris-NTA, eIF5A titrated 0.00175-57.5 uM; 50 mM Tris, 200 mM NaCl, 5 mM beta-ME pH 8; free buffer
Details in all cases: both partners purified
[1] = target: T1, deoxyhypusine synthase D243A, His-tagged (human, UniProt P49366 1-369, D243A)
T1 construct: deoxyhypusine synthase (DHS), Homo sapiens, UniProt P49366, residues 1-369; source: E. coli, purified; His-tagged protein labelled with RED-tris-NTA for MST; not shown: His6, N-terminal, kept
T1 sequence (looked up): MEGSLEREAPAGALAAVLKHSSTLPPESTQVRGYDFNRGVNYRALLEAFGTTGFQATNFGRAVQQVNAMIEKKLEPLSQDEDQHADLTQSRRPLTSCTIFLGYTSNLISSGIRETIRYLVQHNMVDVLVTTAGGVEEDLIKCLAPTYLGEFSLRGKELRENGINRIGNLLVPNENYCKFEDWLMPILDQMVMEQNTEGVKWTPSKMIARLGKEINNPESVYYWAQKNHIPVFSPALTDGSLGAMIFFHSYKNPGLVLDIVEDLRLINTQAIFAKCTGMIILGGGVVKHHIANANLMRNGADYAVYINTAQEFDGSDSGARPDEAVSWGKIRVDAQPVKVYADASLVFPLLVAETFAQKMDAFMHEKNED

[2] = target: T2, deoxyhypusine synthase delY305_I306, patient-derived variant, His-tagged (human, UniProt P49366 1-369, delY305_I306)
T2 construct: deoxyhypusine synthase (DHS), Homo sapiens, UniProt P49366, residues 1-369, pathological variant lacking Y305 and I306; Primarily dimeric by mass photometry; also called DHS^delY305_I306; DHS^del305Y_306I; source: E. coli, purified from the soluble fraction; His-tagged protein labelled with RED-tris-NTA for MST; not shown: His6, N-terminal, kept
T2 sequence (looked up): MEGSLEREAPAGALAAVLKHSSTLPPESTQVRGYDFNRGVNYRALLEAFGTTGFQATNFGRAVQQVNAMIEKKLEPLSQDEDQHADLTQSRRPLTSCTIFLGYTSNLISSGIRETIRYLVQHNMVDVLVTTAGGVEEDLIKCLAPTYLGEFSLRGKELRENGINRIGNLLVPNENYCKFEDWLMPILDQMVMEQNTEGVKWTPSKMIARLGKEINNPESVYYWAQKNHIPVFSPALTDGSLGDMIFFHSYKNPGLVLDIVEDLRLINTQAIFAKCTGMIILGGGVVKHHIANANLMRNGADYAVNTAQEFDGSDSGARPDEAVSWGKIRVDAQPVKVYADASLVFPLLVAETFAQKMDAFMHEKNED

[3] = target: T3, deoxyhypusine synthase E137A, His-tagged (human, UniProt P49366 1-369, E137A)
T3 construct: deoxyhypusine synthase (DHS), Homo sapiens, UniProt P49366, residues 1-369; source: E. coli, purified; His-tagged protein labelled with RED-tris-NTA for MST; not shown: His6, N-terminal, kept
T3 sequence (looked up): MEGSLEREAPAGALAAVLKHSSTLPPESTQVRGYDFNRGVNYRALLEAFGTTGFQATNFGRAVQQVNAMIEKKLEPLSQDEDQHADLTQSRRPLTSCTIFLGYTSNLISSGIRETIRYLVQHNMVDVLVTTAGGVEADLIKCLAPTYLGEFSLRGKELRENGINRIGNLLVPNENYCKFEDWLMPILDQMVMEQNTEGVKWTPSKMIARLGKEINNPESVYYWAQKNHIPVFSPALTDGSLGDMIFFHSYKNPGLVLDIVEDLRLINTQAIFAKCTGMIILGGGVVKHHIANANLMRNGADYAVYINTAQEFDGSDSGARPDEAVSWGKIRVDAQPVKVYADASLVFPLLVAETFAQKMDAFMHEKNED

[4] = target: T4, deoxyhypusine synthase, wild type, His-tagged (human, UniProt P49366 1-369)
T4 construct: deoxyhypusine synthase (DHS), Homo sapiens, UniProt P49366, residues 1-369; N-terminal 6xHis-tag followed by a TEV site (pET24d); tag kept for the His-tag labelling in MST; also called DHS; DHS^wt; source: E. coli, purified; His-tagged protein labelled with RED-tris-NTA for MST; not shown: His6, N-terminal, kept
T4 sequence (looked up): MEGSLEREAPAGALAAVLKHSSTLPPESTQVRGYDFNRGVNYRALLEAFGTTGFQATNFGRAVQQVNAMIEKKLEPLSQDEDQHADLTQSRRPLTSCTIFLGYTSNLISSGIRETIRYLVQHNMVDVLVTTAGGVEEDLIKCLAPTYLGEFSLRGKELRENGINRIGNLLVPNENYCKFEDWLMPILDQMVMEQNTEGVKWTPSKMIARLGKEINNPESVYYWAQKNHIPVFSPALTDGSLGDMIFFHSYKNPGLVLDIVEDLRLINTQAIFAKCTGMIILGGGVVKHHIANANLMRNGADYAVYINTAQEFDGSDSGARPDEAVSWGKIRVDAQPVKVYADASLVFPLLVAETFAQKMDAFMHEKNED

- Kd [1]: 0.511 ± 0.182 µM
- Kd [2]: 0.08 ± 0.0234 µM
- Kd [3]: > 1 µM
- Kd [4]: 0.0338 ± 0.0085 µM
B1: eukaryotic translation factor 5A-1 (eIF5A-1), residues 15-151 (domain or fragment)
chain: not shown
notes: eIF5A1 (eukaryotic translation factor 5A-1), human, residues 15-151, from pET28-MHL (Addgene); The general purification removes the His tag with TEV; A His-tagged eIF5A1 was used only in the hypusination assay; source: E. coli, purified (HisTrap, TEV cleavage, reverse HisTrap, SEC); not shown: His tag, N-terminal, cleaved
